Results reported in the supplement of paper PMC10567573.
± gives the standard deviation.

Assay: protein stability index of a GFP-peptide fusion (GPS, HEK-293T) (PSI 1-6); higher = more stable
[1] = treatment: DMSO, c terminus: a fixed tail appended
[2] = treatment: MLN4924 1 uM, 8 h, c terminus: a fixed tail appended
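Also: 24-mer peptide tiles fused after GFP, lentivirally expressed, FACS-sorted into six equal bins by GFP/DsRed ratio, decoded by Illumina sequencing, PSI is the read-weighted mean bin number.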

Sequence | protein stability index [1] | protein stability index [2] | protein stability index (treatment: DMSO, c terminus: native) | protein stability index (treatment: MLN4924 1 uM, 8 h, c terminus: native)
GNSSGSDVTSLSSQLPDTPNSMVP [ISL2] | 5.13 ± 0.2 | 4.9 ± 0.32 | – | –
VIVWDGDTTRQVQRISCFQSTVKC [WDR41] | 2.31 ± 0.31 | 2.01 ± 0.11 | – | –
NFFNQVLMLGKTSISDLSEHVFDL [PDS5B] | 2.56 ± 0.54 | 2.63 ± 0.32 | – | –
SSYYKFKLTREVLSLFVQKLGNLM [ZER1] | 2.83 ± 0.45 | 2.6 ± 0.36 | – | –
ETFAFQAEIAQLMSLIINTFYSNK [HSP90AB1] | 2.84 ± 0.66 | 2.63 ± 0.54 | – | –
EVFYYSCEYNFVSPSKSFWTRITC [CFHR2] | 3.39 ± 0.15 | 2.31 ± 0.27 | – | –
LGLDNRLFGHPGLDMELGPSQGQE [ADAMTSL2] | 4.84 ± 0.21 | – | – | –
CTAKCGERSVVTRDIRCSEDEKLC [ADAMTSL2] | 4.63 ± 0.38 | 4.61 ± 0.18 | – | –
LEVERQENEQRRLFIQKEEQLQQI [MNAT1] | 4.6 ± 0.36 | 4.64 ± 0.17 | – | –
SDKETDIDDRYGDLDSRTDSDIPE [CDS1] | 5.54 ± 0.31 | 5.43 ± 0.27 | – | –
IEANFPRRVLPCIPSEEWPNPPTL [FAF2] | 2.9 ± 0.28 | 3.05 ± 0.22 | – | –
SPFAQFACDNGLNVRGGKPDDITV [PPTC7] | 4.22 ± 0.23 | 4.14 ± 0.16 | – | –
FIEERRQGLEQFINKIAGHPLAQN [SNX12] | 2.73 ± 0.17 | 2.94 ± 0.47 | – | –
DYLSGVLILASELSRLSVNSVTAG [TSN] | 3.54 ± 0.61 | 2.68 ± 0.4 | – | –
QEILLAHRRFCELLPQEQRSVESS [CIB1] | 4.16 ± 0.15 | 4.32 ± 0.11 | – | –
VPRPGTPQSPPSCRAPPPEARGIR [FCHO1] | 4.85 ± 0.42 | 4.85 ± 0.14 | – | –
YWPLEKDSRIRFGFLTVTNLGVEN [PTPN9] | 2.47 ± 0.36 | 2.43 ± 0.4 | – | –
QLDGLGFLYVTGHIKEILITAGGE [ACSBG2] | 2.66 ± 0.54 | 2.44 ± 0.64 | – | –
YENFLEDKALMIAMEYAPGGTLAE [NEK8] | 3.54 ± 0.13 | 3.98 ± 0.2 | – | –
NFSQPVAGRPSLLRHDEVRTYFHE [NLN] | 3.36 ± 0.61 | 3.33 ± 0.31 | – | –
FQEAMTHLQHKLICTRKPEEIRGG [TENT5D] | 3.05 ± 0.17 | 3.29 ± 0.41 | – | –
LKVKCLNNLAASQLKLDHYRAALR [FKBP8] | 2.28 ± 0.31 | 2.19 ± 0.47 | – | –
AILSLDQIKAIRGSNEYTEGPSVV [SPRY1] | 3 ± 0.072 | 2.98 ± 0.3 | – | –

Sequence | protein stability index [1] | protein stability index [2] | protein stability index (treatment: DMSO, c terminus: native) | protein stability index (treatment: MLN4924 1 uM, 8 h, c terminus: native)
KLATCYFFTVEFGLCKQDGQLRVF [TPH1] | 2.59 ± 0.47 | 2.97 ± 0.56 | – | –
NNFREYNLHRVAAHELGHSLGLSH [MMP1] | 2.85 ± 0.22 | 3.01 ± 0.13 | – | –
FSLLEELKEGMLMKIKQDRASRTY [FSD1] | 2.63 ± 0.42 | 2.66 ± 0.14 | – | –
EVGMVKCGSRRERCGYRLVRRQRS [ESR2] | 3.19 ± 0.35 | 3.27 ± 0.43 | – | –
SRFYEIHARARDQGQPAMEGHCVI [PCDHGC5] | 2.82 ± 0.27 | 2.54 ± 0.15 | – | –
EGHSIVGFAMYYFTYDPWIGKLLY [SAT1] | 3.07 ± 0.16 | 3.02 ± 0.99 | – | –
AVPVSTSKPSSDLLDLQPDFSSGG [SNAP91] | 4.76 ± 0.17 | 4.84 ± 0.14 | – | –
GGFGGGDGGLLSGNEKITMQNLND [KRT15] | 4.76 ± 0.3 | 4.88 ± 0.27 | – | –
KSPSSPQAAFTQQGMEGIKVFLHE [TBX5] | 3.58 ± 0.23 | 3.68 ± 0.26 | – | –
ASLENSLEETKGRYCMQLSQIQGL [KRT16] | 3.3 ± 0.39 | 3.17 ± 0.25 | – | –
NQHDTEMKYYIVHLKRHFMFRNHL [DYRK1B] | 2.45 ± 0.23 | 2.3 ± 0.15 | – | –
DLVAMQWADAAGEAVPEGPDGGGP [ZSWIM9] | 4.99 ± 0.33 | 5.17 ± 0.12 | – | –
TTDDTTAMASASSSATGSFSYPE [MAGEA10] | – | – | 5.28 ± 0.14 | 5.4 ± 0.066
PSTASLLLCPGGLDHKLNLRGKAW [TIAF1] | 2.69 ± 0.24 | 2.87 ± 0.24 | – | –
NLITTVTPEKKAEEERDEEEDKRR [EPB41L3] | 5.61 ± 0.35 | 5.56 ± 0.2 | – | –
DNIVNCNEFLCTLQKKLDNLQCLY [ZNF277] | 2.36 ± 0.39 | 2.07 ± 0.43 | – | –
EQKVLSRLVESLSTQIRALTEQQE [RASAL3] | 2.65 ± 0.046 | 2.76 ± 0.19 | – | –
MAEPSAATQSHSISSSSFGAEPSA [RTN3] | 5.06 ± 0.096 | 5.17 ± 0.13 | – | –
IVIWGVLTQKKPFADEKNILHIMV [RIPK4] | 3.25 ± 0.88 | 2.92 ± 0.67 | – | –
ERQGNGQQAMSLAILRVIRLVRVF [KCNA3] | 2.3 ± 0.13 | 2.56 ± 0.59 | – | –
HVASLADDKMVRFWRIDEDYPVQV [WSB1] | 2.4 ± 0.23 | 3.02 ± 0.51 | – | –
ASDMFRRLRDAGFRVTLWVHPFVN [MYORG] | 2.23 ± 0.17 | 2.13 ± 0.053 | – | –
